Assay results as given in publication PMC10397247.

Columns and labels:
4H3664-AA = molecular target: T1, 4H3664-AA; assay: two-hybrid library CCmax; conditions: mean of both orientations;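 further: natural log of median RNA to DNA barcode read ratio; higher means stronger binding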
T1 chain: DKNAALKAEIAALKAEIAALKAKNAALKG

4H327-AA = molecular target: T2, 4H327-AA; assay: two-hybrid library CCmax;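 further: natural log of median RNA to DNA barcode read ratio; higher means stronger binding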
T2 chain: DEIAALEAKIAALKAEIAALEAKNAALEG

4H369-AA = molecular target: T3, 4H369-AA; assay: two-hybrid library CCmax; conditions: mean of both orientations;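 further: natural log of median RNA to DNA barcode read ratio; higher means stronger binding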
T3 chain: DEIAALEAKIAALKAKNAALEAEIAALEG

4H3605-AA = molecular target: T4, 4H3605-AA; assay: two-hybrid library CCmax; conditions: mean of both orientations;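 further: natural log of median RNA to DNA barcode read ratio; higher means stronger binding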
T4 chain: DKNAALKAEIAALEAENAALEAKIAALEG

4H481-AA = molecular target: T5, 4H481-AA; assay: two-hybrid library CCmax; conditions: mean of both orientations
T5 chain: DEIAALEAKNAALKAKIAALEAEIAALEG

4H2935-AA = molecular target: T6, 4H2935-AA; assay: two-hybrid library CCmax; conditions: mean of both orientations
T6 chain: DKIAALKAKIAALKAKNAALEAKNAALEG

4H3922-AA = molecular target: T7, 4H3922-AA; assay: two-hybrid library CCmax; conditions: mean of both orientations
T7 chain: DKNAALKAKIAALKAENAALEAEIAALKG

4H55-AA = molecular target: T8, 4H55-AA; assay: two-hybrid library CCmax; conditions: mean of both orientations
T8 chain: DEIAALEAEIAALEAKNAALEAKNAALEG

4H2726-AA = molecular target: T9, 4H2726-AA; assay: two-hybrid library CCmax
T9 chain: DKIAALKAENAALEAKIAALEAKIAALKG

4H4033-AA = molecular target: T10, 4H4033-AA; assay: two-hybrid library CCmax; conditions: mean of both orientations
T10 chain: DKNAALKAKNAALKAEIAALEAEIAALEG

4H662-AA = molecular target: T11, 4H662-AA; assay: two-hybrid library CCmax; conditions: mean of both orientations
T11 chain: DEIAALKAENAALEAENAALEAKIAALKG

4H3625-AA = molecular target: T12, 4H3625-AA; assay: two-hybrid library CCmax; conditions: mean of both orientations
T12 chain: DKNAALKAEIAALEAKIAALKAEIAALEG

4H40-bN = molecular target: T13, 4H40-bN; assay: two-hybrid library CCNG1
T13 chain: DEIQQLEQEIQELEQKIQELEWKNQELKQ

4H492-bN = molecular target: T14, 4H492-bN; assay: two-hybrid library CCNG1
T14 chain: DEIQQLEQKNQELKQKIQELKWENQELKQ

4H477-bN = molecular target: T15, 4H477-bN; assay: two-hybrid library CCNG1
T15 chain: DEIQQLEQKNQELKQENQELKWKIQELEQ

4H2839-bN = molecular target: T16, 4H2839-bN; assay: two-hybrid library CCNG1
T16 chain: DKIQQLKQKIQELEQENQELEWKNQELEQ

4H2915-bN = molecular target: T17, 4H2915-bN; assay: two-hybrid library CCNG1
T17 chain: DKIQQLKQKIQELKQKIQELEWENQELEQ

4H3057-bN = molecular target: T18, 4H3057-bN; assay: two-hybrid library CCNG1
T18 chain: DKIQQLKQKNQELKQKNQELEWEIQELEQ

4H319-bN = molecular target: T19, 4H319-bN; assay: two-hybrid library CCNG1
T19 chain: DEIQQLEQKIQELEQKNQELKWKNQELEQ

4H3277-bN = molecular target: T20, 4H3277-bN; assay: two-hybrid library CCNG1
T20 chain: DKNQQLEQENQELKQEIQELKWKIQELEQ

4H348-bN = molecular target: T21, 4H348-bN; assay: two-hybrid library CCNG1
T21 chain: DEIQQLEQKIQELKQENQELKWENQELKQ

4H741-bN = molecular target: T22, 4H741-bN; assay: two-hybrid library CCNG1
T22 chain: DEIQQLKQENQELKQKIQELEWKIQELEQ

4H43-AA = molecular target: T23, 4H43-AA; assay: two-hybrid library CCmax; conditions: mean of both orientations
T23 chain: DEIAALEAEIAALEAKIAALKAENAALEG

4H_APH = molecular target: T24, 4H_APH; assay: two-hybrid library CCmax
T24 chain: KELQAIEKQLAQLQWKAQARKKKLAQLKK

4H4038-AA = molecular target: T25, 4H4038-AA; assay: two-hybrid library CCmax; conditions: mean of both orientations
T25 chain: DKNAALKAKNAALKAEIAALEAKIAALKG

O13-AA = molecular target: T26, O13-AA; assay: two-hybrid library CCmax; conditions: mean of both orientations
T26 chain: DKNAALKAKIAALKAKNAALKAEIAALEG

O14-AA = molecular target: T27, O14-AA; assay: two-hybrid library CCmax; conditions: mean of both orientations
T27 chain: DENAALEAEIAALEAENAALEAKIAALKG

GCN2_T = assay: two-hybrid library CCmax
O11-AA = molecular target: T28, O11-AA; assay: two-hybrid library CCmax; conditions: mean of both orientations
T28 chain: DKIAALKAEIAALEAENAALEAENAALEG

4H_GCN4 = assay: two-hybrid library CCmax
4H_GCN4, sequence (chain, as listed by the source): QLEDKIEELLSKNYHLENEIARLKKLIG

4H_BCR = molecular target: T29, 4H_BCR; assay: two-hybrid library CCmax
T29 chain: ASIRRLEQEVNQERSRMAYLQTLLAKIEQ

4H3587-AA = molecular target: T30, 4H3587-AA; assay: two-hybrid library CCmax
T30 chain: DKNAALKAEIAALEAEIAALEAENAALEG

4H3590-AA = molecular target: T31, 4H3590-AA; assay: two-hybrid library CCmax; conditions: mean of both orientations
T31 chain: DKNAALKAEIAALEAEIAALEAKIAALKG

4H3905-AA = molecular target: T32, 4H3905-AA; assay: two-hybrid library CCmax; conditions: mean of both orientations
T32 chain: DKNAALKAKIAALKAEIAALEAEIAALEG

4H451-AA = molecular target: T33, 4H451-AA; assay: two-hybrid library CCmax; conditions: mean of both orientations
T33 chain: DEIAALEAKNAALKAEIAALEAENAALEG

4H384-AA = molecular target: T34, 4H384-AA; assay: two-hybrid library CCmax; conditions: mean of both orientations
T34 chain: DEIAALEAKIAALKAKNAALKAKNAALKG

4H510-AA = molecular target: T35, 4H510-AA; assay: two-hybrid library CCmax; conditions: mean of both orientations
T35 chain: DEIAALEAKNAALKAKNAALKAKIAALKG

P9A = molecular target: T36, P9A; assay: two-hybrid library CCNG1
T36 chain: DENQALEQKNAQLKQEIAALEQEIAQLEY

4H3057-bH = molecular target: T37, 4H3057-bH; assay: two-hybrid library CCNG1
T37 chain: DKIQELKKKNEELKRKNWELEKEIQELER

4H348-bH = molecular target: T38, 4H348-bH; assay: two-hybrid library CCNG1
T38 chain: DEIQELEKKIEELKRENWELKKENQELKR

4H319-bH = molecular target: T39, 4H319-bH; assay: two-hybrid library CCNG1
T39 chain: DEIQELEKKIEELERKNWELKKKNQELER

4H477-bH = molecular target: T40, 4H477-bH; assay: two-hybrid library CCNG1
T40 chain: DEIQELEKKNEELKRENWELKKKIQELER

4H2915-bH = molecular target: T41, 4H2915-bH; assay: two-hybrid library CCNG1
T41 chain: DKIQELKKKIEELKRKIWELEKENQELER

4H741-bH = molecular target: T42, 4H741-bH; assay: two-hybrid library CCNG1
T42 chain: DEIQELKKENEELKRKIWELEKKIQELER

4H3277-bH = molecular target: T43, 4H3277-bH; assay: two-hybrid library CCNG1
T43 chain: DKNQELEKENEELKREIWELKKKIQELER

4H492-bH = molecular target: T44, 4H492-bH; assay: two-hybrid library CCNG1
T44 chain: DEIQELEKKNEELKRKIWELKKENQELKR

4H40-bH = molecular target: T45, 4H40-bH; assay: two-hybrid library CCNG1
T45 chain: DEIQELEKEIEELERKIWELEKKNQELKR

P9SHb = molecular target: T46, P9SHb; assay: two-hybrid library CCNG1
T46 chain: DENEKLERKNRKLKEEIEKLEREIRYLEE

## DKIAALKAENAALEAKIAALEAKIAALKG [4H2726-AA]
4H3664-AA
  interaction score: -1.05
4H327-AA
  interaction score: 0.992
4H369-AA
  interaction score: 1.68
4H3605-AA
  interaction score: -0.283
4H481-AA
  interaction score: 1.94
4H2935-AA
  interaction score: -1.45
4H3922-AA
  interaction score: -1.41
4H55-AA
  interaction score: -1.14
4H2726-AA
  interaction score: 1.36
4H4033-AA
  interaction score: 2.08
4H662-AA
  interaction score: -0.732
4H3625-AA
  interaction score: -0.165

## DKIQQLKQKIQELEQENQELEWKNQELEQ [4H2839-bN]
4H40-bN
  interaction score: -0.765
4H492-bN
  interaction score: -0.542
4H477-bN
  interaction score: -1.55
4H2839-bN
  interaction score: -0.536
4H2915-bN
  interaction score: 0.377
4H3057-bN
  interaction score: -0.124
4H319-bN
  interaction score: 1.51
4H3277-bN
  interaction score: -0.558
4H348-bN
  interaction score: -0.511
4H741-bN
  interaction score: -1.58

## DKNAALKAEIAALEAEIAALEAENAALEG [4H3587-AA]
4H43-AA
  interaction score: -0.335
4H_APH
  interaction score: -1.77
4H4038-AA
  interaction score: -1.05
O13-AA
  interaction score: 0.274
O14-AA
  interaction score: -1.35
GCN2_T
  interaction score: -2.29
O11-AA
  interaction score: -1.13
4H_GCN4
  interaction score: -1.87
4H_BCR
  interaction score: -2.15
4H3587-AA
  interaction score: -2.04
4H3590-AA
  interaction score: -0.934
4H3905-AA
  interaction score: -0.0465
4H451-AA
  interaction score: -1.79
4H3625-AA
  interaction score: -0.634
4H384-AA
  interaction score: 1.5
4H510-AA
  interaction score: -0.509

## DENQALEQKNAQLKQEIAALEQEIAQLEY [P9A]
P9A
  interaction score: -1.28

## DKIQELKKKIEELKRKIWELEKENQELER [4H2915-bH]
4H3057-bH
  interaction score: -0.637
4H348-bH
  interaction score: -0.507
4H319-bH
  interaction score: -1.33
4H477-bH
  interaction score: -2.15
4H2915-bH
  interaction score: 0.772
4H741-bH
  interaction score: -0.324
4H3277-bH
  interaction score: -1.15
4H492-bH
  interaction score: -1.59
4H40-bH
  interaction score: -1.4

## DENEKLERKNRKLKEEIEKLEREIRYLEE [P9SHb]
P9SHb
  interaction score: -0.553
